Test results: patent US20250250357A1 (NANJING ZAIMING PHARMACEUTICAL, published 2025)

Experiments:
[1] = target: T1, human MSLN-FL-his protein (human, UniProt Q13421 296-580); assay: competitive ELISA; row Tab106
T1 construct: made in HEK293E cells, purified on nickel column; also called hMSLN-FL-his; human MSLN full-length protein; not shown: His tag
T1 sequence (Q13421 other isoform, or with tags, fused parts or gaps): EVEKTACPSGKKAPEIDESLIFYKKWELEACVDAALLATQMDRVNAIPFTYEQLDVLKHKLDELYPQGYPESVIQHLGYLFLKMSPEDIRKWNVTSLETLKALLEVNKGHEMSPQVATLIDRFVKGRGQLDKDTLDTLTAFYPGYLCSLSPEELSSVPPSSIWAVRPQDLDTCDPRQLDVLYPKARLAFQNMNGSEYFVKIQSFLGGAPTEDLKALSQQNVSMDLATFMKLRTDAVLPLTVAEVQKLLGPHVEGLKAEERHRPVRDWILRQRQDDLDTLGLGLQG

[2] = target: T1, human MSLN-FL-his protein; assay: competitive ELISA; row Tab142
Protocol: (§1) In order to identify antigen-binding sites of antibodies, MSLN chimeric antibodies were grouped using competitive ELISA.
(§2) The chimeric antibodies were diluted to 2 μg/mL with PBS and allowed to coat 96-well high-adsorption ELISA plates at 50 μL/well. After the plates were coated at 4° C. overnight, 250 μL of a blocking buffer (PBS containing 2% (w/w) BSA) was added for two hours of blocking at room temperature. 40 μg/mL of the antibodies to be tested were added, and then the human MSLN-FL-His protein with an EC₈₀ concentration corresponding to each of the antibodies to be tested was added for incubation for 2 h. The plates were washed 5 times with PBS, an HRP-labeled anti-His secondary antibody (purchased from Genescript, Cat. No. A00612) was then added for incubation for 1 h, and the plates were washed 5 times again. A TMB substrate was added at 50 μL/well, and after 10 minutes of incubation at room temperature, a stop solution (1.0 M HCl) was added at 50 μL/well. OD₄₅₀ nm values were read using an ELISA plate reader (Insight, purchased from PerkinElmer), and the competition rate between the antibodies was calculated according to the OD₄₅₀ nm values using a formula.

[3] = target: T1, human MSLN-FL-his protein; assay: competitive ELISA; row F3-63.5
Protocol: as §1, §2

[4] = target: T1, human MSLN-FL-his protein; assay: competitive ELISA; row F6-62.5
Protocol: as §1, §2

[5] = target: T1, human MSLN-FL-his protein; assay: competitive ELISA; row F6-76.1
Protocol: as §1, §2

[6] = target: T1, human MSLN-FL-his protein; assay: competitive ELISA; row F2-56.12
Protocol: as §1, §2

[7] = target: T1, human MSLN-FL-his protein; assay: competitive ELISA; row F4-94.15
Protocol: as §1, §2

[8] = target: T1, human MSLN-FL-his protein; assay: SPR (Biacore), antibody captured on Protein A chip;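 note: measured at 25 °C, analyte injected 240 s in five twofold dilutions from 200 nM, dissociation up to 600 s, double-referenced, fitted with Langmuir 1:1 model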
[9] = target: T2, human MSLN-FL-his protein (human, UniProt Q13421 296-580); assay: ELISA, coated antigen; antibody 1 nM
T2 construct: also called human MSLN full-length protein; hMSLN-FL-his; not shown: His tag

[10] = target: T2, human MSLN-FL-his protein; assay: ELISA, coated antigen; antibody 10 nM
Protocol: (§3) The plate was sealed with a plastic film and incubated at 4° C. overnight. The next day, the plate was washed twice with PBST, and a blocking buffer [PBS+2% (w/w) BSA] was added for blocking at room temperature for 2 h. The blocking buffer was discarded, and a chimeric antibody or negative control antibody serially diluted from 100 nM was added at 50 μL/well. After incubation at 37° C. for 2 h, the plate was washed 3 times with PBST. […] After incubation at 37° C. for 2 h, the plate was washed 5 times with PBST. A TMB substrate was added at 50 μL/well for incubation at room temperature for 5-10 min, and then a stop solution (1.0 N HCl) was added at 50 μL/well.

[11] = target: T2, human MSLN-FL-his protein; assay: ELISA, coated antigen; antibody 0.1 nM
Protocol: as §3

[12] = target: T2, human MSLN-FL-his protein; assay: ELISA, coated antigen; antibody 100 nM
Protocol: as §3

[13] = target: T2, human MSLN-FL-his protein; assay: ELISA, coated antigen; antibody 0.01 nM
Protocol: as §3

[14] = target: T2, human MSLN-FL-his protein; assay: ELISA, coated antigen; antibody 0.001 nM
Protocol: as §3

[15] = target: T2, human MSLN-FL-his protein; assay: ELISA, coated antigen; antibody 0.0001 nM
Protocol: as §3

[16] = target: T2, human MSLN-FL-his protein; assay: ELISA, coated antigen; no antibody (blank, column 'none')
Protocol: as §3

[17] = target: T3, human MSLN-R2-his protein (human, UniProt Q13421 391-486); assay: ELISA, coated antigen; antibody 1 nM
T3 construct: also called human MSLN-R2 protein; hMSLN-R2-his; not shown: His tag
T3 sequence (Q13421 other isoform, or with tags, fused parts or gaps): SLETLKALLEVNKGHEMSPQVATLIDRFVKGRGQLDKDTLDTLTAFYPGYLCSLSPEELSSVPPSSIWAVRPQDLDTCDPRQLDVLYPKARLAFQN

[18] = target: T3, human MSLN-R2-his protein; assay: ELISA, coated antigen; antibody 10 nM
Protocol: as §3

[19] = target: T3, human MSLN-R2-his protein; assay: ELISA, coated antigen; antibody 0.1 nM
Protocol: as §3

[20] = target: T3, human MSLN-R2-his protein; assay: ELISA, coated antigen; antibody 100 nM
Protocol: as §3

[21] = target: T3, human MSLN-R2-his protein; assay: ELISA, coated antigen; antibody 0.01 nM
Protocol: as §3

[22] = target: T3, human MSLN-R2-his protein; assay: ELISA, coated antigen; antibody 0.001 nM
Protocol: as §3

[23] = target: T3, human MSLN-R2-his protein; assay: ELISA, coated antigen; antibody 0.0001 nM
Protocol: as §3

[24] = target: T3, human MSLN-R2-his protein; assay: ELISA, coated antigen; no antibody (blank, column 'none')
Protocol: as §3

[25] = target: T4, human MSLN-R3-his protein (human, UniProt Q13421 487-598); assay: ELISA, coated antigen, antibody 1 nM
T4 construct: Made in HEK293E cells, purified on nickel column; also called hMSLN-R3-his; human MSLN-R3 protein; not shown: His tag
T4 sequence (Q13421 495-606): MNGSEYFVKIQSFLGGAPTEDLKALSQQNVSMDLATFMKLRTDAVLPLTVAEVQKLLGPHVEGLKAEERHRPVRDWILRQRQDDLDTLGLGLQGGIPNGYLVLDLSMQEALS

[26] = target: T4, human MSLN-R3-his protein; assay: ELISA, coated antigen, antibody 10 nM
Protocol: as §3

[27] = target: T4, human MSLN-R3-his protein; assay: ELISA, coated antigen, antibody 0.1 nM
Protocol: as §3

[28] = target: T4, human MSLN-R3-his protein; assay: ELISA, coated antigen, antibody 100 nM
Protocol: as §3

[29] = target: T4, human MSLN-R3-his protein; assay: ELISA, coated antigen, antibody 0.01 nM
Protocol: as §3

[30] = target: T4, human MSLN-R3-his protein; assay: ELISA, coated antigen, antibody 0.001 nM
Protocol: as §3

[31] = target: T4, human MSLN-R3-his protein; assay: ELISA, coated antigen, antibody 0.0001 nM
[32] = target: T4, human MSLN-R3-his protein; assay: ELISA, coated antigen, no antibody (blank)
Protocol: as §3

B1: S009-F3-63.5 (antibody, human IgG1, kappa, V domains shown)
VH: QVQLQQSGAELVRPGASVTLSCKASGYTFTDYEMHWVKQTPVHGLEWIGGIDPETGDTAYNQQFKGKAILTADRSSSTAYMELRSLTSEDSAVYYCTNYASSREDYWGQGTTLTVSS
VL: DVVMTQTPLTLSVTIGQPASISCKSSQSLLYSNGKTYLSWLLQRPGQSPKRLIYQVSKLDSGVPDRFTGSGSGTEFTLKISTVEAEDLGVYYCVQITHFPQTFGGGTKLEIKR
notes: human-murine chimeric antibody, human IgG1/kappa constant regions
With B1 the competition rate [1] was 15%, the competition rate [2] was 2% and the competition rate [3] was 58%. It also gave a competition rate [4] of -366%, a competition rate [5] of -3% and a competition rate [6] of -77%. The competition rate [7] was 11%, the Kd [8] was 105 nM and the koff [8] was 0.000478 s⁻¹. For the same binder, the kon [8] was 4560 M⁻¹ s⁻¹.

B2: S009-F6-62.5 (antibody, human IgG1, kappa, V domains shown)
VH: QVQLQQPGTELVKPGASVKLSCRASGYTFTAYWMHWVKQRPGQGLEWIGNINPSNGGTDFNEKFKSKATLTVDKSSSTAYMQLSSLTSEDSAVYYCARGRGYFDVWGTGTTVTVSS
VL: DILLTQSPAILSVSPGERVSFSCRASKNIGTSIHWYQQRTNGSPRLLIKYASESISGIPSRFSGSGSGTDFTLNINSVESEDIADYYCQQSNSWPTLTFGAGTKLELKR
notes: as for B1
For B2, the competition rate [1] was 30%, the competition rate [2] was 28% and the competition rate [3] was -17%. The competition rate [4] was -76%, the competition rate [5] was 57% and the competition rate [6] was -143%. For the same binder, the competition rate [7] was 25%, the Kd [8] was 120 nM and the koff [8] was 0.0173 s⁻¹. It also gave a kon [8] of 144000 M⁻¹ s⁻¹.

B3: S009-F6-62.5 (antibody, human IgG1, kappa, V domains shown)
VH: QVQLQQPGTELVKPGASVKLSCRASGYTFTAYWMHWVKQRPGQGLEWIGNINPSNGGTDFNEKFKSKATLTVDKSSSTAYMQLSSLTSEDSAVYYCARGRGYFDVWGTGTTVTVSS
VL: DILLTQSPAILSVSPGERVSFSCRASKNIGTSIHWYQQRTNGSPRLLIKYASESISGIPSRFSGSGSGTDFTLNINSVESEDIADYYCQQSNSWPTLTFGAGTKLELKR
notes: Human-murine chimeric antibody, human IgG1/kappa constant regions
With B3 the OD450 [9] was 3.13 OD450, the OD450 [10] was 3.11 OD450 and the OD450 [11] was 2.45 OD450. The OD450 [12] was 3.22 OD450, the OD450 [13] was 0.94 OD450 and the OD450 [14] was 0.27 OD450. It also gave an OD450 [15] of 0.05 OD450 and an OD450 [16] of 0.05 OD450.

B4: S009-F6-76.1 (antibody, human IgG1, kappa, V domains shown)
VH: QVQLQQSGPELVKPGASVKISCKASGYTFTDYYINWVKQRPGQGLEWIGWIFPGRGSTFYYEKFKGKATLTVDKSSSTAYMLLSSLTSEDSAVYFCARRGDSAGYEDLDYWGQGTSVTVSS
VL: NIVMTQSPKFMSMSVGERVTLSCKASENVVTYVSWYQQKPKQSPKLLIYGASKRYTGVPDRFTGSGSATDFTLTISSVQAEDLGDYHCGQSYSYPYTFGGGTKLEIKR
notes: as for B1
B4 was tested, and the competition rate [1] was 27%, the competition rate [2] was 39% and the competition rate [3] was 2%. The competition rate [4] was 60%, the competition rate [5] was 98% and the competition rate [6] was 99%. The competition rate [7] was 94%, the Kd [8] was 10.1 nM and the koff [8] was 0.000369 s⁻¹. It also gave a kon [8] of 36700 M⁻¹ s⁻¹.

B5: Tab106 (YP218, hIgG1) (antibody, V domains shown)
VH: QQQLEESGGGLVKPEGSLTLTCKASGFDLGFYFYACWVRQAPGKGLEWIACIYTAGSGSTYYASWAKGRFTISKASSTTVTLQMTSLAAADTATYFCARSTANTRSTYYLNLWGPGTLVTVSS
VL: DVVMTQTPASVSEPVGGTVTIKCQASQRISSYLSWYQQKPGQRPKLLIFGASTLASGVPSRFKGSGSGTEYTLTISDLECADAATYYCQSYAYFDSNNWHAFGGGTEVVVRT
notes: Control antibody: YP218 VH and VL recombined into human IgG1 CH and CL expression vectors; also called YP218 human IgG1 antibody
B5 was tested, and the OD450 [17] was 0.3 OD450, the OD450 [18] was 1.39 OD450 and the OD450 [19] was 0.08 OD450. The OD450 [20] was 2.07 OD450, the OD450 [21] was 0.06 OD450 and the OD450 [22] was 0.06 OD450. For the same binder, the OD450 [23] was 0.06 OD450 and the OD450 [24] was 0.07 OD450.

B6: Tab106 (YP218, hIgG1) (antibody, V domains shown)
VH: QQQLEESGGGLVKPEGSLTLTCKASGFDLGFYFYACWVRQAPGKGLEWIACIYTAGSGSTYYASWAKGRFTISKASSTTVTLQMTSLAAADTATYFCARSTANTRSTYYLNLWGPGTLVTVSS
VL: DVVMTQTPASVSEPVGGTVTIKCQASQRISSYLSWYQQKPGQRPKLLIFGASTLASGVPSRFKGSGSGTEYTLTISDLECADAATYYCQSYAYFDSNNWHAFGGGTEVVVRT
notes: Control: YP218 VH and VL recombined into human IgG1 CH and CL expression vectors; also called YP218 human IgG1 antibody
For B6, the OD450 [25] was 1.57, the OD450 [26] was 1.69 and the OD450 [27] was 0.88. It also gave an OD450 [28] of 1.79, an OD450 [29] of 0.18 and an OD450 [30] of 0.06. The OD450 [31] was 0.05 and the OD450 [32] was 0.07.

B7: S009-F2-56.12 (antibody, human IgG1, kappa, V domains shown)
VH: DVQLQESGPGMVKPSQSLSLTCTVTGYSITSGYDWHWIRHFPGNKLEWMGYISYSGSTNYNPSLKSRISITHDTSKNHFFLKLKSVTTEDTATYYCARGTGPDYWGQGTTLTVSS
VL: DIVMTQSQKFMSTSVGDRVSITCKASQNVRTAVAWYQQKPGQSPKALIHLPSNRHTGVPDRFTGSGSGTDFTLTISNVQSEDLADYFCLQHWNYPLTFGGGTKLEIKR
notes: as for B1
B7 showed a competition rate [1] of 1%, a competition rate [2] of 3% and a competition rate [3] of -24%. For the same binder, the competition rate [4] was -233%, the competition rate [5] was 93% and the competition rate [6] was 97%. It also gave a competition rate [7] of 87%, a Kd [8] of 43.1 nM and a koff [8] of 0.00312 s⁻¹. For the same binder, the kon [8] was 72400 M⁻¹ s⁻¹.

B8: S009-F4-94.15 (antibody, human IgG1, kappa, V domains shown)
VH: QVQLHQPGAELVRPGSSVKLSCKASGYTFTSYWVHWVQQRPRQGLEWIGNIDPSDSEIHYNQKFKDKATLTVDKSSSTAYIHLSRLTSEDSAIYYCVRGGVPWFAYWGQGTLVTVSA
VL: QIVLTQSPAIMSASPGEKVTLTCSASSSVSSTYLYWFQQKPGSSPKVWIYSTSNLASGVPARFSGSGSGTSYSLTISSMEAEDAASYFCHQWISYPYTFGGGTKLEIKR
notes: as for B1
In the case of B8, the competition rate [1] is reported as 19%, the competition rate [2] is reported as 26% and the competition rate [3] is reported as -10%. It also gave a competition rate [4] of -262%, a competition rate [5] of 99% and a competition rate [6] of 101%. The competition rate [7] was 100%, the Kd [8] was 1.2 nM and the koff [8] was 0.000185 s⁻¹. For the same binder, the kon [8] was 154000 M⁻¹ s⁻¹.
